Results from patent US20220095596A1, “USE OF ECM1 GENE-KNOCKOUT MOUSE IN SCREENING OF ANTI-HEPATIC FIBROSIS DRUG” (CENTER FOR EXCELLENCE IN MOLECULAR CELL SCIENCE, CHINESE …, priority 2018, published 2022).

What was measured:
[1] = tested on: primary stellate cells (HSC); assay: Self-activation of primary stellate cells (HSC) cultured in vitro, related gene expression by RT-PCR; format: cell-based; conditions: ECM1 protein 50 µg/ml, cRGD 10 µg/ml; WT mouse HSC cultured in vitro 2 weeks, vs unrelated IgG (NC)
Method: B: Primary stellate cells (HSC) from the liver of wild-type mouse (WT) are isolated and cultured in vitro for 2 weeks. Recombinant mouse ECM1 protein ([…]), cRGD ([…]) or unrelated IgG protein ([…]) are added to the culture medium as negative control (NC). Changing fresh culture medium every 3 days. Two weeks later, It is lysed with TRIZO and mRNA is extracted, and cDNA is obtained by reverse transcription. Finally, the expression of related genes is detected by RT-PCR.
The primary stellate cells (HSC) of the mouse liver will self-activate during in vitro culture. This is because of the change in culture conditions, the Latent TGF-β1 secreted by the cells will be activated by integrin αv on the cell surface to activate stellate cells (HSC). In this process, the addition of integrin αv inhibitor (cRGD) or TGF-β1 neutralizing antibody will inhibit the self-activation of stellate cells (HSC).
Therefore, primary stellate cells (HSC) from the liver of wild-type mice (WT) were isolated and cultured in vitro for 2 weeks. Recombinant mouse ECM1 protein ([…]), cRGD ([…]) or unrelated IgG protein ([…]) were added to the culture medium as negative control (NC). Changing fresh culture solution every 3 days. […] Finally, the expression of related genes was detected by RT-PCR to determine the activation degree of primary stellate cells (HSC).

[2] = tested on: Latent TGF-β1 activation on the surface of stellate cells (HSC); assay: TGF-β1 activity reporter co-culture of primary HSC with NIH-3T3 luciferase reporter cells; format: cell-based; conditions: 50 g/ml in culture medium, 16 hours of culture, WT mouse HSC with NIH-3T3 reporter cells, vs unrelated IgG (NC)
Method: A: Primary stellate cells (HSC) from the liver of wild-type mice (WT) are isolated and co-cultured with NIH-3T3 cells containing the TGF-β1 activity reporter system. Recombinant mouse ECM1 protein ([…]), cRGD ([…]) or unrelated IgG protein ([…]) are added to the culture medium as negative control (NC). After 16 hours of the culture, the cells are lysed, and Luciferase activity in the lysate is detected.
The process of Latent TGF-β1 activation to TGF-β1 is a transient effect. Activated TGF-β1 will bind to TGF-β1 receptor on the adjacent cell surface, phosphorylating the downstream SMAD protein, and then activating the downstream gene expression. In order to better detect the process of Latent TGF-β1 activation to TGF-β1, we used a co-culture system to detect the […] activation process that occurs on the surface of HSC stellate cells. A luciferase reporter gene was stably transfected into NIH-3T3 cells. There are 4 repeated SMAD binding sites in the upstream of this reporter gene. […]
Firstly, primary stellate cells (HSC) of wild-type mouse (WT) liver were isolated and co-cultured with NIH-3T3 cells containing TGF-β1 activity reporter system. […] After 16 hours of culture, the cells were lysed, and Luciferase activity in the lysate was detected. […]

Molecule | activation of stellate cells (HSC), expression of related genes by RT-PCR [1] | activation of Latent TGF-β1 on the surface of stellate cells (HSC), Luciferase activity [2]
cRGD [reference compound] | significantly inhibit | –
recombinant mouse ECM1 protein: Recombinant mouse extracellular matrix protein 1 added to the culture medium (protein, UniProt Q61508 20-559, looked up) Extracellular matrix protein 1: ASEGAFKASDQREMTPERLFQHLHEVGYAAPPSPPQTRRLRVDHSVTSLHDPPLFEEQREVQPPSSPEDIPVYEEDWPTFLNPNVDKAGPAVPQEAIPLQKEQPPPQVHIEQKEIDPPAQPQEEIVQKEVKPHTLAGQLPPEPRTWNPARHCQQGRRGVWGHRLDGFPPGRPSPDNLKQICLPERQHVIYGPWNLPQTGYSHLSRQGETLNVLETGYSRCCRCRSDTNRLDCLKLVWEDAMTQFCEAEFSVKTRPHLCCRLRGEERFSCFQKEAPRPDYLLRPCPVHQNGMSSGPQLPFPPGLPTPDNVKNICLLRRFRAVPRNLPATDAIQRQLQALTRLETEFQRCCRQGHNHTCTWKAWEGTLDGYCERELAIKTHPHSCCHYPPSPARDECFAHLAPYPNYDRDILTLDLSRVTPNLMGQLCGSGRVLSKHKQIPGLIQNMTIRCCELPYPEQACCGEEEKLAFIENLCGPRRNSWKDPALCCDLSPEDKQINCFNTNYLRNVALVAGDTGNATGLGEQGPTRGTDANPAPGSKEE | significantly inhibit | significantly inhibit
